Here are results for two substances from patent US20120328599A1.

A value given as a limit tells only on which side of the number the result lay.

Assay [1] has as its target FGFR1-RE kinase domain (R577E mutant, aa 458-765) (human) (UniProt P11362).
Assay [2] addresses wt-FGFR1 kinase domain (aa 458-765) (human) (UniProt P11362).

On to “FGFR1-RE kinase domain (R577E mutant, aa 458-765) (from UniProt P11362) (enzyme)”, for which the in vitro trans phosphorylation of purified kinase domains with ATP and Mg2+, native gel in assay [1] is less than 30 min. On to “wt-FGFR1 kinase domain (aa 458-765) (from UniProt P11362) (enzyme)”, for which the in vitro trans phosphorylation of purified kinase domains with ATP and Mg2+, native gel in assay [2] is less than 10 min.
